The target of this experiment is Cry2-mCh-METTL3 (wild type, full-length construct), Q86U44. As to the kind of experiment: FRET or BRET; FLIM-FRET in live HEK293T; EGFP fusion as donor, Cry2-mCh-METTL3 (mCherry) as acceptor; photons collected from inside condensates formed after blue light illumination (30 seconds). As to conditions: remark: other sources report otherwise.
Chain of Cry2-mCh-METTL3 (wild type, full-length construct), Q86U44 (Q86U44 whole entry, the tested form may be a part): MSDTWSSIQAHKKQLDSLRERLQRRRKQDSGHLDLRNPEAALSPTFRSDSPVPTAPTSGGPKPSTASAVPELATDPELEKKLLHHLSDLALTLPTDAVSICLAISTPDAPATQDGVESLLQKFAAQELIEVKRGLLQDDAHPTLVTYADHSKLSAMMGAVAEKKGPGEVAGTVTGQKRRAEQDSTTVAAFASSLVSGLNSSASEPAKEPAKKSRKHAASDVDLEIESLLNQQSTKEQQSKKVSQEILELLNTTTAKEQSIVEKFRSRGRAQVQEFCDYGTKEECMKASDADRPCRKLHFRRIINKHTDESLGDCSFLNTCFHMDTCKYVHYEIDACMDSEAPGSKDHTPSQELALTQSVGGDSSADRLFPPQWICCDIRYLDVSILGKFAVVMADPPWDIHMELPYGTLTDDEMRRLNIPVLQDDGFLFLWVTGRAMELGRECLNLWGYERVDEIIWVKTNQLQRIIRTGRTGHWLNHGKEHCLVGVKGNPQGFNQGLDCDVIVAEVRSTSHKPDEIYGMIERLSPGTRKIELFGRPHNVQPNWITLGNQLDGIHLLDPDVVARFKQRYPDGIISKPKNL

B1: EGFP-WTAP, Q15007 1-396 (natural protein)
chain: MTNEEPLPKKVRLSETDFKVMARDELILRWKQYEAYVQALEGKYTDLNSNDVTGLRESEEKLKQQQQESARRENILVMRLATKEQEMQECTTQIQYLKQVQQPSVAQLRSTMVDPAINLFFLKMKGELEQTKDKLEQAQNELSAWKFTPDSQTGKKLMAKCRMLIQENQELGRQLSQGRIAQLEAELALQKKYSEELKSSQDELNDFIIQLDEEVEGMQSTILVLQQQLKETRQQLAQYQQQQSQASAPSTSRTTASEPVEQSEATSKDCSRLTNGPSNGSSSRQRTSGSGFHREGNTTEDDFPSSPGNGNKSSNSSEERTGRGGSGYVNQLSAGYESVDSPTGSENSLTHQSNDTDSSHDPQEEKAVSGKGNRTVGSRHVQNGLDSSVNVQGSVL
With B1, the EGFP fluorescence lifetime (FLIM-FRET) is 2.01 ns.
